# Reference: paper doi:10.1101/2022.05.09.491158
# Target: purified recombinant I-A^b carrying a cleavable linker peptide (mouse)
# Test: fluorescent peptide competition binding assay
substance,measurement,value
"NP peptide Q2, P2 (Ser to Gln) (from UniProt P03466 311-325)",reduction in peptide-MHC binding (against the unsubstituted peptide),3.4
